The results in this text go back to article PMC8244488 (Current Research in Structural Biology, 2021).

No end group written: not given here.

Test [1] deals with C-terminally truncated ARAP3 peptide (human). Put plainly: fluorescence polarisation. In general terms: In fluorescence polarisation assays a small probe gives low polarisation when free and higher when bound to something large.
The target of test [2] is T1, human Shank1 PDZ (652-765), GST tag removed (human, UniProt Q9Y566 652-765).
T1 sequence: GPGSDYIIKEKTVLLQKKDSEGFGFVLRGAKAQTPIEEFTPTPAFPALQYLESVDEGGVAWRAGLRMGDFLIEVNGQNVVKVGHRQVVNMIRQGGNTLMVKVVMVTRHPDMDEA
Put plainly: fluorescence polarisation.

B1: human Shank1 PDZ (652-765), GST tag removed (domain or fragment)
chain: T1 sequence
As to B1, the fold change in affinity against ARAP3 (1414-1429) in test [1] came out at 2.5 fold.
For the molecule FPELIQDTSTSFSTTR (also: FITC label, position not given here) [ARAP3_(1414-1429) peptide], the binding result in test [2] is “binds”.
